In patent publication US20250346679A1:

Biological target: mouse CD137, cell-surface (mouse) (UniProt P20334)
Experiment: cell-based or functional assay

Sequence of mouse CD137, cell-surface (mouse) (P20334 24-256): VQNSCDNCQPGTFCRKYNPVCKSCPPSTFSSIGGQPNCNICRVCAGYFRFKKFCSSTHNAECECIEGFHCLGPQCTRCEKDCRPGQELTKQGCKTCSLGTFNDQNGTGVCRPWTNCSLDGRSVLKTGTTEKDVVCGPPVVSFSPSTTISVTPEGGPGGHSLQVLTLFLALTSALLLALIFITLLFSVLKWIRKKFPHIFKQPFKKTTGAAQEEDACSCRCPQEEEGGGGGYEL

+XL EC50 (nM), mouse CD137 DO11.10 T cell activation assay: 2.26 nM | +XL Emax (IL-2 pg/ml), mouse CD137 DO11.10 T cell activation assay: 21300 pg/mL | EC50 (nM), mIFN-γ release, OT-1 CD8+ T cell activation assay, with anti-hCH2: 0.36 nM | Emax (pg/ml), mIFN-γ release, OT-1 CD8+ T cell activation assay, with anti-hCH2: 17800 pg/mL
Substance: G1-AA/Lob12.3 (antibody)
